Source: the DeepSol protein solubility set

Assay: soluble on expression in E. coli; label from the status in PepcDB or PDB records

Sequence	soluble on expression in E. coli
MDFSNRLLLLLEVTELGSFTNVAEQKNLDRSVISKQISRLEEELGVRLLNRTTRSLSLTAAGNEMVNQAKLLRDLLNNTHRLAQNYHSEPRGILRITSSMMFGRQYVQDAISVFQKQYPDVKCELRLEDRVVDIVQEGFDIGFRIGRPKNSSLISRKIARSRLLIVASPDFIQQHGKIETIEKLESLPATIYAAPGLFIDKFTYLDENKVEQQFHLNVAYKVNDVEMVVKSAVAGNTLAVVTAQMIENEIIEGKLIPIMTHLNLEDFGTFFAVYPHRDAPIKTKLFIDVLKSIIGEDSPMWEKNIPDFAKLYGGTK	not soluble
GSGEAKPQAPELRIFPKKMDAELGQKVDLVCEVLGSVSQGCSWLFQNSSSKLPQPTFVVYMASSHNKITWDEKLNSSKLFSAMRDTNNKYVLTLNKFSKENEGYYFCSVISNSVMYFSSVVPVLQKVNSTTTKPVLRTPSPVHPTGTSQPQRPEDCRPRGSVKGTG	soluble
MGSDKIHHHHHHMSRDLPPLNALRAFESTARFGSVSQAAEQLSVTHGAVSRQLKVLEEHLGVSLFSKDGRGLKLTDAGIRLRDASADAFDRLRSVCAELSKGSVDAPFVLGCSGSLLARWFIPRLSRLNAELPDLRLHLSAGEGDLDPRRPGLDALLVFAEPPWPADMQVFELASERIGPVLSPRFARFESMRDAPANALLEESLLQTTSRPQAWPSWAQQNGIDPDALRYGQGFEHLYYLLEAAVAGLGIAIAPEPLVIDDLKAGRLAAPWGFSETPAQLALWVPRRAADGRARQLAQWLKNELKRSGDPIRN	not soluble
SNAMAAKKPLFEVIASKIKDSINRDEYKTGMLMPNETALQEIYSSSRTTIRRAVDLLVEEGLVVRKNGVGLYVQPKLTAQNILEMTGVMKNDTNENLKKDIKDFYIRKAGKFYAEIFGMKENELVYSIKFVQKSEHGATLDRLILPLGLYPDLQAKDFQIINIIELVNSGKYKLFELEQELQLILAGNEQIKNMHLNENDPVFKLSSVFYAENDMPIAIQYHYEDAESTKYVVDFN	soluble
MSLKRDELKLDYQRHQFYEYFNSIFNYDILDASISENIYLLRKTTDKLFYIEFENQLFETVMFLSMKTLVLDINSFSKEIGNKSEAYEQYIQQIKEENGINNFFDRYPYLLKQINREVRLIEESYSLLFDRFLKDLSELRSCFNITEPLSNVEFSLGDSHSQKQTVVKIEFKGKSIYYKPKSYDSYNILLELISLLKSNNIPSFSLPESLIKADYCWQLGVDYINSNNDEVKRIYFKYGVLAAFSEIFSITDLHMENVIVSGGDLYLIDVETFFQRKLNVQTNNFEGITVDTYQRIYETSLSNGLFPVQFEKNSAPNISGISGKGGKRKKGKYELINKNRGDMKLVKTDYFQEDSYNIPTLNEKMVEPLDYANEVIAGFRECYTFLMTQRAKVKKILYGFPKLRTRAIFRNTSDYGKFLQASTNPKYLFSEKKRENLFSILYESKHIEQFIVDSEIKDLMNGDIPYFSMDPNGNVYNSLGTVIGNLGKTTSLFDNIATLNDERMKFTCELIGIVLKKPIKHWERKDGKSYYFPSISSKQSFNEEILRQREGHHHHHH	soluble
QNLGAAVAILGGPGTVQGVVRFLQLTPERCLIEGTIDGLEPGLHGLHVHQYGDLTNNCNSCGNHFNPDGASHGGPQDSDRHRGDLGNVRADADGRAIFRMEDEQLKVWDVIGRSLIIDEGEDDLGRGGHPLSKITGNSGERLACGIIARSAGLF	soluble
MGQFILEIYKIRIVSQTHLFSKLIFHSFLSFLFNDFSHLSASLPPLIDLSTKKKLLARASEGATSSSSPLPPASTATLSAFRPPARMIPPPVVLPQQYAPLPGFTPLLPAQAMMANFPPNALYQLGTPPFENGNNRIRFKDAAMVVLSRLSFNQRRLDNAHQ	not soluble
MSEEDKAKKLENLLKLLQLNNDDTSKFTQEQKKAMKDHKFWRTQPVKDFDEKVVEEGPIDKPKTPEDISDKPLPLLSSFEWCSIDVDNKKQLEDVFVLLNENYVEDRDAGFRFNYTKEFFNWALKSPGWKKDWHIGVRVKETQKLVAFISAIPVTLGVRGKQVPSVEINFLCVHKQLRSKRLTPVLIKEITRRVNKCDIWHALYTAGIVLPAPVSTCRYTHRPLNWKKLYEVDFTGLPDGHTEEDMIAENALPAKTKTAGLRKLKKEDIDQVFELFKRYQSRFELIQIFTKEEFEHNFIGEESLPLDKQVIFSYVVEQPDGKITDFFSFYSLPFTILNNTKYKDLGIGYLYYYATDADFQFKDRFDPKATKALKTRLCELIYDACILAKNANMDVFNALTSQDNTLFLDDLKFGPGDGFLNFYLFNYRAKPITGGLNPDNSNDIKRRSNVGVVML	soluble
AEVNDPRVGFVAVVTFPVDGPATQHKLVELATGGVQEWIREVPGFLSATYHASTDGTAVVNYAQWESEQAYRVNFGADPRSAELREALSSLPGLMGPPKAVFMTPRGAILPS	soluble
MGSDKIHHHHHHMTEATYYFIGIKGSGMSALALVLHDLGHQVLGSDITQYTFTQKGLAAAGIKMLPFDPANLKPGYTVIAGNSFTDDHPEIKRAKELGLTIYRYHEFLGKLIEGYTSIGVAGAHGKTSTTGLLAHTLSGVAKTSYLIGDGTGKGIPDSKFFVFEADEYRRHFLAYHPDYMIMTNIDFDHPDYYTGFEDVYDAFETEANQVKKAIVAWGDDPWLRKLKAKVPVYYYGISDRDDFQARNVDRDTKGSSFDAYFHDQLIGHFFVPLFGEHSVLNALAVVAVAHMEKLDAKLIARELGNFSGVKRRFAEKDLKDMIIVDDYAHHPNEIKATLDAARQKYPDKAIIAVFQPHTFSRTQAYEPQYVQVLSQADQTFLTPIFSSAREKTGKIRSEDITAQIKGAAVIHQEDMKPLLQYHNAVVVFMGAGDIQKYEKAYETILAEE	not soluble
MTNIEERINQIIQVLREQVVQDTAVPRNIRRAAEQAIEALQNKEKEPAVRAADAIAILEEISEDPNMPLHTRTIIWEVLGALEQIK	not soluble
MAHHHHHHMQFGIKVEPYGYDKLVWLETDALKVGLTNYAASVASIQVYHPADNKWIEVNCGYPKNPEEAYADPDYMGATVGRCAGRVAGGVFTLDGVKYYTQKNRGENTCHCGDDAYHKKHWGMKLIETANVIGVRFNYTSPHMESGFPGEVKNYCTFTIDRSKPNALKTIYDSYITDNSPCDASPINVFSHTSFNLNGIPGQQDGEKNWVQPESVRNHWLRVPASRVAEADRMAIPTGEFLSVEGTGLDFRQGRVIGDCIDDVALLDRDPCGYDHPLAIDGWEKGKLMLHAEAKSPVTNICMKVYSTFPCMWVYTANNKPLPASGGPGQRYARWTGLLVGPQNFSDVANHYPKYPSCIVRRGERQYSETTINEFTIEQ	soluble
GPGSMDPLCSPSAVSINGTPQTSVVNTSSTTSVVASPARPKLNRSVKFDPTIGGPLHSGDLSLDTSFVHGAGGDADAREHYGRRGRADEAATDSPLYSGDVLHEHEELLPFQLTREDVAAAFEFLDVNGSGLLTMGNLKHRLSAFYPHLTSKEYKFLVEDPSGSTGGGGTASSAARSAVAARHGGAADGCGGSTGGPTTSSLAQAASSARPSNLSFDDGGDAVHANGALSGEGVASGVGGSNATSARAGLDVDQLWDLINSFQQLQRTFGAAQAGQAEGQNAQNTRSAFNSSFDAYLVGTHGTQGIRSADIGFDAVGEAFRIYDPHNTHYVEEEVLSCIMARVGFGELTEEELAVLVSTADFDGDGRISLEDFRRLVSMKGRFEK	soluble
MSLSTEPLASRMRPKNIDEIISQQHLVGPRGIIRRMVDTKKLTSMIFYGPPGIGKTSIAKAISGSTQYKFRQLNAVTNTKKDMQLVVEEAKMSGQVILLLDEIHRLDKAKQDFLLPHLENGKIVLIGATTSNPYHAINPAIRSRAQIFELYPLNDEDVRQALTRAIEDDENGLKTYQPKIDEDAMTYFSTQSQGDVRSALNALELAVLSADNDKDGYRHVTLQDAKDCLQKGAFVSDKDGDMHYDVMSAFQKSIRGSDVNAALHYLARLIEAGDLPTIVRRLLVISYEDIGLASPNAGQRTLAAIESAERLGLPEARIPLSQAVIELCLSPKSNSAMSAIDSALSDIRNGHVGQIPNHLKDGHYQGAKDLGRSIGYKYPHQYVNGYVSQQYLPDKLKNKIYYEPKTTSKSEQQLKEIYNNLLKEGHHHHHH	soluble
MYLHMAIAAPRILCPDMDSDTTKKWIFREPSRTDGDDVYALITECPPLDINSSYCNFLQATHFSKTCVLAEKDGDLAGFISGYQEPDEPNTLFIWQVAVSPRYRGKGLAFSMLTTLLERKNLLHIEFIETTITKANNASWSLFKKIDAQYGNQGQVTTFLDKESHFKGKHDTEYLYRIPLKSSQK	not soluble
MDLMEEMWISRPQRRMTKLSDLSDGSIARIKFYNANKEYTVDSFKIMFAEYQKSIYCNQEVIGVCHSISDYSYIVDYINNSHFRNELDIFTPEFDKKRTHHITSHKSDKDTLQVRVISNEGVIKSYDMSAIEITFEKMYHIIDKERNGYRSGQL	not soluble
MGSDKIHHHHHHMKISLAPISYCWSKSDVEHFYQQVALSNIDTVYLGETVCSRRRELKFNNYLDLANMLKSHGKHVVLSTMALIEAQSELNELKRAIDNGDFSIEANDMAAVHYAHQAKVPFVCGPTINNYNRTSLNLLHQKGMYRFVMPCELSQQWLNTVINQGDKPAFEIEVLGHGYLPLAHSARCFTAKHYQLPKDKCQTICQRHSKGLLAQTQESQPLLRLNGIQTQSAAQVNLINQIPQMIDMGIDYWRISPNKLTDVAMGSELAHVLAQITEDPFNSKALITKQFNDNKQASIINHHCNGYWLGLPGMDYSLEPNTPAG	not soluble
MRSRRVDVMDVMNRLILAMDLMNRDDALRVTGEVREYIDTVKIGYPLVLSEGMDIIAEFRKRFGCRIIADFKVADIPETNEKICRATFKAGADAIIVHGFRGADSVRACLNVAEEMGREVFLLTEMSHPGAEMFIQGAADEIARMGVDLGVKNYVGPSTRPERLSRLREIIGQDSFLISPGVGAQGGDPGETLRFADAIIVGRSIYLADNPAAAAAGIIESIKDLLNP	not soluble
SLHAQQKAEQLAEREEMVAELSAAKQQITQSEHWRAECELLNNEVRSLQSINTSLEADLREVTTRMEAAQQHADDKIRQMINSEQRLSEQFENLANRIFEHSNRRVDEQNRQSLNSLLSPLREQLDGFRRQVQDSFGKEAQERHTLTHEIRNLQQLNAQMAQEAINLTRALKGDNKTQGNWGEVVLTRVLEASGLREGYEYETQVSIENDARSRMQPDVIVRLPQGKDVVIDAKMTLVAYERYFNAEDDYTRESALQEHIASVRNHIRLLGRKDYQQLPGLRTLDYVLMFIPVEPAFLLALDRQPELITEALKNNIMLVSPTTLLVALRTIANLWRYEHQSRNAQQIADRASKLYDKMRLFVDDMSAIGQSLDKAQDNYRQAMKKLSSGRGNVLAQAEAFRGLGVEIKREINPDLAEQAVSQDEEYRLRSVPEQPNDEAYQRDDEYNQQSR	not soluble
